# Results as given in the supplement of paper PMC9170038.
# Tested on: MS2 coat protein
# Test: apparent KD of MS2 coat protein; designed switch direction (-1 OFF switch, 1 ON switch): 1; higher = weaker reporter binding
# Procedure, shortened: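 An oligonucleotide input, 200 uM small-molecule ligand, or no input was present during titration of SNAP-549-labelled MS2 coat protein, which was doubled from 0.7 or 1.5 nM to 3 µM. Designed RNA switches had been transcribed on Illumina chips by stalled E. coli RNA polymerase. Apparent KD per design is the median over clusters of curves fitted to normalised cluster fluorescence.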
# [1] = input ligand: microRNA oligo, concentration not stated
# [2] = Eterna round: R95, input ligand: FMN 200 uM
# [3] = Eterna round: R95, input ligand: microRNA oligo, concentration not stated
# [4] = Eterna round: R95, input ligand: none
Sequence,apparent KD of MS2 coat protein (input ligand: FMN 200 uM) [nM],apparent KD of MS2 coat protein [1] [nM],apparent KD of MS2 coat protein (input ligand: none) [nM],apparent KD of MS2 coat protein [2] [nM],apparent KD of MS2 coat protein [3] [nM],apparent KD of MS2 coat protein [4] [nM]
"UGUUAUUUGACAGGAUAUUGAUUGUAAAGUUUUUACAUGAGGAUCACCCAUGUUGUUCAUUCGAACAAGAAGGGUCAAGUUUUU [JR_SSNG2_Sub019] (Eterna round: R96, puzzle: Same State NG 2)",1070,48.2,172,,,
"AAUCGUUUAAUAGGAUAUCGCUAUACAUGAGGAUCACCCAUGUUUACCACGCUGGUUUUUCGUACCGAGAAGGAUUCUGAUGAU [JL JR sub007 mod 8] (Eterna round: R96, puzzle: Same State NG 2)",36.6,26.5,39.9,,,
"GUUCGUUUGAUAGGAUAUCGCUAUACAUGAGGAUCACCCAUGUUUACCACGCUGGUUUUUCGUACCGAGAAGGAUUCUGAUGAU [JL JR sub007 mod 2] (Eterna round: R96, puzzle: Same State NG 2)",,30.5,,,,
"AGGCUCAGACGAGGAUAUAUGUGGUCACAUGAGGAUCACCCAUGUCUCGAGCUUCGGCUCGAGGCAUAGAAGGUGUCUGAGCCA [SSNG2/5-C1] (Eterna round: R96, puzzle: Same State NG 2)",115,42.5,25.7,,,
"AAAGAAACAUGAGGAUCACCCAUGUACCGCGGAAUGUGUGCACAGGAUAUGUACAGCUUUUGCUUACAGAAGGGUGCGCCCGUG [Enorso] (Eterna round: R96, puzzle: Same State NG 3)",20.8,38.7,70,,,
"AUAAAACACAUGAGGAUCACCCAUGUGGCCGAAGAAGGCACACAGGAUAUCAAGCAACUAAAGCUUGAGAAGGGUGAGACAAAA [Quistera] (Eterna round: R96, puzzle: Same State NG 3)",494,30.7,92.3,,,
UACAAUCUAUCUGAGGAUAUCAUGAUGAUAACAUGAGGAUCACCCAUGUGCAGGAAAACUGCAUAUGAGAAGGCAGAUAGAUUGU [salish99_ss2_r3_074] (puzzle: Same State 2),,,,102,195,92.4
"UGCCUGAGUCGAGGAUAUUAUGGAUCAAUUAAUACAUGAGGAUCACCCAUGUAAUUAAUUUAACAUGAGAAGGUGACUCAGGCU [SSNG2/10-B3] (Eterna round: R96, puzzle: Same State NG 2)",,8.4,,,,
GUUAAACAUGAGGAUCACCCAUGUAAUAAUAUGGGAGGAUAUCAGAAAUUAUGUAUUAAAUGAGAAGGCCUAAUUG [Mat - Same State 1 - Mod of Eli - D80] (puzzle: Same State 1),,,,125,585,769
"AUAGUUGCCGAAGGAUAUGAUGAGGAUCACCCAUCAGAAGGUUGGCUAUUGGGCUGACAUGAGGAUCACCCAUGUUUCGGUGUU (Eterna round: R96, puzzle: Same State NG 1)",19.2,17.1,29.1,,,
CAGCGCUGUCGAGAGGAUAUGCGGUGAUGGACAUGAGGAUCACCCAUGUUAGCGAUGGCAUUACGGUAGAAGGCUCUACAGCUGC [Soteed - 4] (puzzle: Same State 2),,,,,26,
GGGCCAGCCUGUGCUGGGCUUUAGCAUGUACAUGAGGAUCACCCAUGUCGUGUACAUGCUUUUUGCUCGUCUUUAAA [Photon Torp-07] (puzzle: Sensor for hsa-mir-208a),,,,70.5,22.5,100
AGUCCAGCGAAAGCUGGACAAAAGCAUGUACAUGAGGAUCACCCAUGUUCAUGUACAAGCUUUUUGCUCGUCUUAAA [Zipper 52 - 13] (puzzle: Sensor for hsa-mir-208a),,,,486,16.2,588
GUAGAUAUAACGGAGGAUAUUCAAUGAGAGACAUGAGGAUCACCCAUGUGAGAGUGAGAUGAUAGGAAGAAGGCUGAGAGAGAUG [Altered State 2-7 - Jieux - Same State 2] (puzzle: Same State 2),,,,94.2,70.3,64.7
"UUUAGCGUUACAGGAUAUGGUGAGGAUCACCCACUAGAAGGGUAAACAUGUGCGUCGGACAUGAGGAUCACCCAUGUAGGGCGU (Eterna round: R96, puzzle: Same State NG 1)",16.5,22.2,35.2,,,
AUUAAACAUGAGGAUCACCCAUGUAAUAAUAUGGGAGGAUAUGCGAAUUUAAUUAUUUAAGCAGAAGGCCUAAUUA [Mat - Same State 1 - D100] (puzzle: Same State 1),,,,,56,
